Measurements taken from article PMC2174230 (The Journal of Cell Biology, 1999).

Molecular target: T1, GST-Kap122p (S. cerevisiae, UniProt P32767 1-1081)
T1 sequence: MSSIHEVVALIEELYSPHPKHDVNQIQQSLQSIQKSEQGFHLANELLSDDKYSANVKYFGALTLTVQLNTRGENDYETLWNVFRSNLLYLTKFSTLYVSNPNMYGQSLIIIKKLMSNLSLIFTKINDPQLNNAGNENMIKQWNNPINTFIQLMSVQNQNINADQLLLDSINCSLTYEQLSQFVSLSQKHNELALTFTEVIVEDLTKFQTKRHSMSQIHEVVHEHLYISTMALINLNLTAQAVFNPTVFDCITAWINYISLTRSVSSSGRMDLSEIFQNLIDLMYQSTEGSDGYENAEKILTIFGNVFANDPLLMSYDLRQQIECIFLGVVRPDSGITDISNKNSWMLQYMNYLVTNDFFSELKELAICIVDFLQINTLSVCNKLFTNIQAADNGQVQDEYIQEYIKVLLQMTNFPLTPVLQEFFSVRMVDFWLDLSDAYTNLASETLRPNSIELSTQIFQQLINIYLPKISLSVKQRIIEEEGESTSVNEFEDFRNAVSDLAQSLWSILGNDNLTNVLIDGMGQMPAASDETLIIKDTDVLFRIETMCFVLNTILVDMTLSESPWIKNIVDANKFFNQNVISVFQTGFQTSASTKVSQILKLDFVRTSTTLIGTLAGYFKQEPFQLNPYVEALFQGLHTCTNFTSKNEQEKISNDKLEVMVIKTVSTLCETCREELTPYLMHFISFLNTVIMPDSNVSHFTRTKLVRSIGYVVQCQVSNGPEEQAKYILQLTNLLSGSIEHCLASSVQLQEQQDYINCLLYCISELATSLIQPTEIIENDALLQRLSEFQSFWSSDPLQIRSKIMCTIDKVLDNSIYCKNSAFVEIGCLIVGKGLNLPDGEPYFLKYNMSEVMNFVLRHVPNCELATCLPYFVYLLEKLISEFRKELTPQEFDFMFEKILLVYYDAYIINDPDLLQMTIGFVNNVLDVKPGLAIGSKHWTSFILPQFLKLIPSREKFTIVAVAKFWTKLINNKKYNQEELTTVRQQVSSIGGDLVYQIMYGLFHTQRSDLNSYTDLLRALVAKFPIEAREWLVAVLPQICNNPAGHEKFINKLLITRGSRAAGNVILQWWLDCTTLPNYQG
Assay: pull-down

B1: His6-Toa1p/Toa2p complex (recombinant TFIIA) (complex)
chain 1: MSNAEASRVYEIIVESVVNEVREDFENAGIDEQTLQDLKNIWQKKLTETKVTTFSWDNQFNEGNINGVQNDLNFNLATPGVNSSEFNIKEENTGNEGLILPNINSNNNIPHSGETNINTNTVEATNNSGATLNTNTSGNTNADVTSQPKIEVKPEIELTINNANITTVENIDDESEKKDDEEKEEDVEKTRKEKEQIEQVKLQAKKEKRSALLDTDEVGSELDDSDDDYLISEGEEDGPDENLMLCLYDKVTRTKARWKCSLKDGVVTINRNDYTFQKAQVEAEWV
chain 2: MAVPGYYELYRRSTIGNSLVDALDTLISDGRIEASLAMRVLETFDKVVAETLKDNTQSKLTVKGNLDTYGFCDDVWTFIVKNCQVTVEDSHRDASQNGSGDSQSVISVDKLRIVACNSKKSE
B1: binds.
